# B1: Asialoglycoprotein Receptor 1 expressed on cells (receptor)
# chain: MTKEYQDLQHLDNEESDHHQLRKGPPPPQPLLQRLCSGPRLLLLSLGLSLLLLVVVCVIGSQNSQLQEELRGLRETFSNFTASTEAQVKGLSTQGGNVGRKMKSLESQLEKQQKDLSEDHSSLLLHVKQFVSDLRSLSCQMAALQGNGSERTCCPVNWVEHERSCYWFSRSGKAWADADNYCRLEDAHLVVVTSWEEQKFVQHHIGPVNTWMGLHDQNGPWKWVDGTDYETGFKNWRPEQPDDWYGHGLGGGEDCAHFTDDGRWNDDVCQRPYRWVCETELDKASQEPPLL
# notes: whole, on cells; also called ASGR1
# B2: Dendritic cell-specific intercellular adhesion molecule-3-grabbing nonintegrin expressed on cells (receptor)
# chain: MSDSKEPRLQQLGLLEEEQLRGLGFRQTRGYKSLAGCLGHGPLVLQLLSFTLLAGLLVQVSKVPSSISQEQSRQDAIYQNLTQLKAAVGELSEKSKLQEIYQELTQLKAAVGELPEKSKLQEIYQELTRLKAAVGELPEKSKLQEIYQELTWLKAAVGELPEKSKMQEIYQELTRLKAAVGELPEKSKQQEIYQELTRLKAAVGELPEKSKQQEIYQELTRLKAAVGELPEKSKQQEIYQELTQLKAAVERLCHPCPWEWTFFQGNCYFMSNSQRNWHDSITACKEVGAQLVVIKSAEEQNFLQLQSSRSNRFTWMGLSDLNQEGTWQWVDGSPLLPSFKQYWNRGEPNNVGEEDCAEFSGNGWNDDKCNLAKFWICKKSAASCSRDEEQFLSPAPATPNPPPA
# notes: whole, on cells; also called DC-SIGN; CD209
# B3: Tweety Family Member 2 expressed on cells (receptor)
# chain: MQAARVDYIAPWWVVWLHSVPHVGLRLQPVNSTFSPGDESYQESLLFLGLVAAVCLGLNLIFLVAYLVCACHCRRDDAVQTKQHHSCCITWTAVVAGLICCAAVGVGFYGNSETNDGAYQLMYSLDDANHTFSGIDALVSGTTQKMKVDLEQHLARLSEIFAARGDYLQTLKFIQQMAGSVVVQLSGLPVWREVTMELTKLSDQTGYVEYYRWLSYLLLFILDLVICLIACLGLAKRSKCLLASMLCCGALSLLLSWASLAADGSAAVATSDFCVAPDTFILNVTEGQISTEVTRYYLYCSQSGSSPFQQTLTTFQRALTTMQIQVAGLLQFAVPLFSTAEEDLLAIQLLLNSSESSLHQLTAMVDCRGLHKDYLDALAGICYDGLQGLLYLGLFSFLAALAFSTMICAGPRAWKHFTTRNRDYDDIDDDDPFNPQAWRMAAHSPPRGQLHSFCSYSSGLGSQTSLQPPAQTISNAPVSEYMNQAMLFGRNPRYENVPLIGRASPPPTYSPSMRATYLSVADEHLRHYGNQFPA
# notes: whole, on cells; also called TTYH2; TTHY2
# B4: Recombinant DC-SIGN (CD209) with human Fc tag (Fc fusion)
# chain: QVSKVPSSISQEQSRQDAIYQNLTQLKAAVGELSEKSKLQEIYQELTQLKAAVGELPEKSKLQEIYQELTRLKAAVGELPEKSKLQEIYQELTWLKAAVGELPEKSKMQEIYQELTRLKAAVGELPEKSKQQEIYQELTRLKAAVGELPEKSKQQEIYQELTRLKAAVGELPEKSKQQEIYQELTQLKAAVERLCHPCPWEWTFFQGNCYFMSNSQRNWHDSITACKEVGAQLVVIKSAEEQNFLQLQSSRSNRFTWMGLSDLNQEGTWQWVDGSPLLPSFKQYWNRGEPNNVGEEDCAEFSGNGWNDDKCNLAKFWICKKSAASCSRDEEQFLSPAPATPNPPPA
# B5: Liver and lymph node sinusoidal endothelial cell C-type lectin expressed on cells (receptor)
# chain: MDTTRYSKWGGSSEEVPGGPWGRWVHWSRRPLFLALAVLVTTVLWAVILSILLSKASTERAALLDGHDLLRTNASKQTAALGALKEEVGDCHSCCSGTQAQLQTTRAELGEAQAKLMEQESALRELRERVTQGLAEAGRGREDVRTELFRALEAVRLQNNSCEPCPTSWLSFEGSCYFFSVPKTTWAAAQDHCADASAHLVIVGGLDEQGFLTRNTRGRGYWLGLRAVRHLGKVQGYQWVDGVSLSFSHWNQGEPNDAWGRENCVMMLHTGLWNDAPCDSEKDGWICEKRHNC
# notes: whole, on cells; also called LSECtin; CLEC4G
# B6: Liver/lymph node-specific intercellular adhesion molecule-3-grabbing integrin expressed on cells (receptor)
# chain: MSDSKEPRVQQLGLLEEDPTTSGIRLFPRDFQFQQIHGHKSSTGCLGHGALVLQLLSFMLLAGVLVAILVQVSKVPSSLSQEQSEQDAIYQNLTQLKAAVGELSEKSKLQEIYQELTQLKAAVGELPEKSKLQEIYQELTRLKAAVGELPEKSKLQEIYQELTRLKAAVGELPEKSKLQEIYQELTRLKAAVGELPEKSKLQEIYQELTELKAAVGELPEKSKLQEIYQELTQLKAAVGELPDQSKQQQIYQELTDLKTAFERLCRHCPKDWTFFQGNCYFMSNSQRNWHDSVTACQEVRAQLVVIKTAEEQNFLQLQTSRSNRFSWMGLSDLNQEGTWQWVDGSPLSPSFQRYWNSGEPNNSGNEDCAEFSGSGWNDNRCDVDNYWICKKPAACFRDE
# notes: whole, on cells; also called L-SIGN; CLEC4M
# B7: C-type lectin domain family 10 member A expressed on cells (receptor)
# chain: MTRTYENFQYLENKVKVQGFKNGPLPLQSLLQRLCSGPCHLLLSLGLGLLLLVIICVVGFQNSKFQRDLVTLRTDFSNFTSNTVAEIQALTSQGSSLEETIASLKAEVEGFKQERQAGVSELQEHTTQKAHLGHCPHCPSVCVPVHSEMLLRVQQLVQDLKKLTCQVATLNNNASTEGTCCPVNWVEHQDSCYWFSHSGMSWAEAEKYCQLKNAHLVVINSREEQNFVQKYLGSAYTWMGLSDPEGAWKWVDGTDYATGFQNWKPGQPDDWQGHGLGGGEDCAHFHPDGRWNDDVCQRPYHWVCEAGLGQTSQESH
# notes: whole, on cells; also called CLEC10A
# Columns and labels:
# [1] = molecular target: T1, Fc-tagged SARS-CoV-2 S N-terminal domain (SARS-CoV-2; human, UniProt P0DTC2 14-305); test: Fc-tagged S domain on receptor-transfected HEK293T cells, CDS imaging
# T1 construct: domain: NTD
# [2] = molecular target: SARS-CoV-2 S protein displayed on lentiviral (HIV-GFP) pseudovirus (SARS-CoV-2, UniProt P0DTC2 14-1273); test: pseudovirus on transfected HEK293T cells on ice, anti-S staining, flow cytometry
# [3] = molecular target: Human IgG1 Fc-tagged SARS-CoV-2 Spike (S) recombinant protein (SARS-CoV-2; human, UniProt P0DTC2 16-1213); test: Fc-tagged protein on receptor-transfected HEK293T cells, CDS imaging
# [4] = molecular target: T2, Fc-tagged SARS-CoV-2 S2 subunit (SARS-CoV-2; human, UniProt P0DTC2 686-1213); test: CDS imaging on HEK293T cells expressing DC-SIGN, anti-human Fc detection
# T2 construct: domain: S2
# [5] = molecular target: T3, Human IgG1 Fc-tagged SARS-CoV-2 S receptor-binding domain (SARS-CoV-2; human, UniProt P0DTC2 319-541); test: Fc-tagged protein on receptor-expressing HEK293T cells (FIG. 13B)
# T3 construct: domain: RBD
# [6] = molecular target: Recombinant SARS-CoV-2-S1 protein with His tag (SARS-CoV-2, UniProt P0DTC2 16-685)
# [7] = molecular target: T2, Fc-tagged SARS-CoV-2 S2 subunit; test: CDS imaging on HEK293T cells expressing LSECtin, anti-human Fc detection
# [8] = molecular target: T2, Fc-tagged SARS-CoV-2 S2 subunit; test: CDS imaging on HEK293T cells expressing L-SIGN, anti-human Fc detection
binder,measurement,setting,value
B1,binding result,[1],binds
same,binding result,[2],binds
same,binding result,[3],binds
B2,binding result,[4],binds
B3,binding result,[5],binds
B4,EC50 (read off the curve),[6],~800 ng/mL
B5,binding result,[7],binds
B6,binding result,[8],binds
B7,binding result,[2],binds
same,binding result,[3],binds
